Measurements published in patent publication US20260210939A1, “MODIFIED OLFACTORY RECEPTORS” (GIVAUDAN SA, priority 2022, published 2026).
Where two headings read alike, the source gives them in different places.

Key:
OR8K3 = molecular target: T1, OR8K3 (Homo sapiens, UniProt Q8NH51, D295E/L122R/Y298D); assay: cell-based; type: cell-based
T1 construct: Improved functional expression of modified OR-genes containing the truncated, optimized C-terminus; expressed in transfected cells; host or cells: HEK293T stably expressing human RTP1S(V227I) and RTP2(L220R)
T1 sequence (Q8NH51 with tags, fused parts or gaps L122R/D295E/Y298D): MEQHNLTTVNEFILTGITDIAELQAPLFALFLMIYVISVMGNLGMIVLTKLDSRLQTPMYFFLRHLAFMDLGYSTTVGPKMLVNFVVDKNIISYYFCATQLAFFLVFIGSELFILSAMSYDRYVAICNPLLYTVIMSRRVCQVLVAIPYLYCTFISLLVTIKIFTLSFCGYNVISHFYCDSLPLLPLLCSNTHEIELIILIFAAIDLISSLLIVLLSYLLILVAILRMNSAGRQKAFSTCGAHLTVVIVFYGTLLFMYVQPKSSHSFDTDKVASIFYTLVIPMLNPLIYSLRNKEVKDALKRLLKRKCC

OR2T4 = molecular target: T2, OR2T4 (Homo sapiens, UniProt Q8NH00, D328E/G331D/M330K); conditions: OR2T4 variant
T2 sequence (Q8NH00 with tags, fused parts or gaps D328E/M330K/G331D): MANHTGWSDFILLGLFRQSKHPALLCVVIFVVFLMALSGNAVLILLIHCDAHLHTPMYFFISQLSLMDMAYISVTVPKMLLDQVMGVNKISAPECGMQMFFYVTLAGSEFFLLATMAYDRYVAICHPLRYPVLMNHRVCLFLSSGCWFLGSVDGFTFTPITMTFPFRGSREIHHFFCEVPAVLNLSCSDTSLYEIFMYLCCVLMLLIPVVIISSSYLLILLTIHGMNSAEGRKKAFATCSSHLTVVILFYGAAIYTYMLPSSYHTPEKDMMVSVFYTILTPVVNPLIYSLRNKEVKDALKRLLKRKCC

OR5A2 = molecular target: T3, OR5A2 (Homo sapiens, UniProt Q8NGI9); assay: CRE-luciferase assay, HEK293T cells expressing OR5A2 (wild-type / modified C-terminus); type: cell-based; conditions: OR5A2 variant
T3 construct: Improved functional expression of modified OR-genes containing the truncated, optimized C-terminus; expressed in transfected cells; host or cells: HEK293T with stably integrated human RTP1S(V227I) and RTP2(L220R)
T3 sequence (Q8NGI9 with tags, fused parts or gaps): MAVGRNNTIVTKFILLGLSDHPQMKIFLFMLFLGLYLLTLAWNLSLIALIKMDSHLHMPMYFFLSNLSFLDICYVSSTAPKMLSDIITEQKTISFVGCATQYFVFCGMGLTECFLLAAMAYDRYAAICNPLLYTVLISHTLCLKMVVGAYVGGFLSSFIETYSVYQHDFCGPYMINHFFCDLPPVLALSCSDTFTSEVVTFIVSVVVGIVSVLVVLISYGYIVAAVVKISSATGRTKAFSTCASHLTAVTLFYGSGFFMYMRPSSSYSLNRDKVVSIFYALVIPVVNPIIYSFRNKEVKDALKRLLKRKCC

OR5B12 = molecular target: T4, OR5B12 (Homo sapiens, UniProt Q96R08, C141R); assay: CRE-luciferase assay, HEK293T cells expressing OR5B12 (wild-type / modified C-terminus); type: cell-based; conditions: OR5B12 variant
T4 construct: Improved functional expression of modified OR-genes containing the truncated, optimized C-terminus; expressed in transfected cells; host or cells: HEK293T stably expressing human RTP1S(V227I) and RTP2(L220R)
T4 sequence (Q96R08 with tags, fused parts or gaps C141R): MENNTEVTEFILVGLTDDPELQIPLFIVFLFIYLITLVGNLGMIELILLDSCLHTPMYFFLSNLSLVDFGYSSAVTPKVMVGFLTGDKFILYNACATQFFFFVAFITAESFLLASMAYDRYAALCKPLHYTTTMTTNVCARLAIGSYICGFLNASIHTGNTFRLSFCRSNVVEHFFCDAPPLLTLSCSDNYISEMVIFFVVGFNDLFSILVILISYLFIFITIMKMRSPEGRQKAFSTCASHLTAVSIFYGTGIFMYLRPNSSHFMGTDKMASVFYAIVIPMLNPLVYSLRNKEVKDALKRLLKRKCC

OR52A5 = molecular target: T5, OR52A5 (Homo sapiens, UniProt Q9H2C5); type: cell-based
T5 construct: Improved functional expression of modified OR-genes containing the truncated, optimized C-terminus; expressed in transfected cells; host or cells: HEK293T stably expressing human RTP1S(V227I) and RTP2(L220R)
T5 sequence (Q9H2C5 with tags, fused parts or gaps): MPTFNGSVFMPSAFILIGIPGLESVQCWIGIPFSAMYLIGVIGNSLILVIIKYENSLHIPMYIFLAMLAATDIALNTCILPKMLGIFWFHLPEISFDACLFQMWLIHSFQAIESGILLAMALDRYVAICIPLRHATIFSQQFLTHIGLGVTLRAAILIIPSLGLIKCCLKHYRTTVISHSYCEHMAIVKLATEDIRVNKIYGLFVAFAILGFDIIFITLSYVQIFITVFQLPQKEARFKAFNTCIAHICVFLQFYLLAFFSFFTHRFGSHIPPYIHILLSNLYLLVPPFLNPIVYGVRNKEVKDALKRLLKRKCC
Description: Further variants of the improved C-terminal domain sequence […] (SEQ ID NO: 86) and falling within the general sequence RN[KR][EDQ][VMIL][KR]xA[LIV][KRH][KR][LI][LIF][KRG][KR][KR] (SEQ ID NO: 1) with further amino acids at the C-terminal end (CC) were tested on the class I receptor OR52A5 activated by 4-ethyloctanoic acid. […] This activation is further improved by either replacing amino acid position 4-6 with the sequence QIR or by adding the terminal sequence RRR.

OR7C1 = molecular target: T6, OR7C1 (Homo sapiens, UniProt O76099, D296E/G302K/M297V/R299D/T295K/V126I); assay: CRE-luciferase assay, HEK293T cells expressing OR7C1 (wild-type / modified C-terminus); type: cell-based
T6 construct: Improved functional expression of modified OR-genes containing the truncated, optimized C-terminus; expressed in transfected cells; host or cells: HEK293T stably expressing human RTP1S(V227I) and RTP2(L220R)
T6 sequence (O76099 with tags, fused parts or gaps V126I/T295K/D296E/M297V/R299D/G302K): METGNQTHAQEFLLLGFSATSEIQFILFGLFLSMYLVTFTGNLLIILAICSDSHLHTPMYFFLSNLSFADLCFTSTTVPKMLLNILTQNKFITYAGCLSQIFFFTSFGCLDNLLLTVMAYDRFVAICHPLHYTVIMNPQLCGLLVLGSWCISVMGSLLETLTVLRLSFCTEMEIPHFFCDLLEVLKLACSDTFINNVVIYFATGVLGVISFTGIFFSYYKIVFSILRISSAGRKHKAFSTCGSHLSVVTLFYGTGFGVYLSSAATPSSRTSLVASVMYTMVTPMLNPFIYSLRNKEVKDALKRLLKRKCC
Source text: To test for possible variants of the sequence […]CC (SEQ ID NO: 86) leading to similar improved functional expression, different point mutations were introduced into the first 16 amino acids of this sequence (corresponding to […], SEQ ID NO: 10) and the variants were fused after the TM7 with OR7C1. […] The test concentrations were selected to fall into the range of partial activity of the wild-type sequence.

OR7D4 = molecular target: T7, OR7D4 (Homo sapiens, UniProt Q8NG98, D296E/E302K/G299D); assay: CRE-luciferase assay, HEK cells expressing OR7D4 (wild-type / modified C-terminus); type: cell-based; conditions: OR7D4 variant, Androstenone
T7 construct: Improved functional expression of modified OR-genes containing the truncated, optimized C-terminus; expressed in transfected cells
T7 sequence (Q8NG98 with tags, fused parts or gaps D296E/G299D/E302K): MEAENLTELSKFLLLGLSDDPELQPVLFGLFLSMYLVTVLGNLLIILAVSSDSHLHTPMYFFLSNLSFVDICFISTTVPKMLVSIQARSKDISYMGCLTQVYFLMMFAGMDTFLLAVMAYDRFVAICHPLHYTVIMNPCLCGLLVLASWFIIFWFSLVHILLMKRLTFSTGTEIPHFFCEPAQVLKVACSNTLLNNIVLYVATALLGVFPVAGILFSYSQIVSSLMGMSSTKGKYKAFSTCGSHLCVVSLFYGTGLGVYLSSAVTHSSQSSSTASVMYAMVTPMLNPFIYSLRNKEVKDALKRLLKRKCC
Source text: Random permutations of the general C-terminal sequence RN[KR][EDQ][VMIL][KR]KA[LIV][KRH][KR][LI][LIF][KRG][KR][KR]CC (SEQ ID NO: 822) linked to OR7D4 were generated based on degenerate oligonucleotides for the C-terminal domain. For this experiment, the MfeI/XhoI fragment from pcDNA3.1(+)-mmLucy-FLAG-rho-OR7D4 containing the CMV promoter and the OR coding sequence was used to replace the EcoRI/SalI fragment of pRDVCCB-CMV-dCas9-VPH-2A-Blast (Cellecta, Inc., Mountain View, USA). Complementary degenerate oligonucleotides were then used to replace the coding region of the C-terminal domain of […] (between Bsu36I and NotI). Random clones were selected, sequenced and tested for a correct open reading frame. A total of 55 clones were obtained with the correct open reading frame of […] and a permutation of the general sequence RN[KR][EDQ][VMIL][KR]KA[LIV][KRH][KR][LI][LIF][KRG][KR][KR]CC (SEQ ID NO: 822) as the C-terminal domain. All the different clones were compared to the wild-type sequence by the functional assay in HEK cells with the ligand Androstenone tested in a dose-response test.

CC(C)[C@@H]1CC[C@@H](C)CC1=O [menthone]
activation of the modified receptor variant (OR8K3; OR8K3, SEQ ID NO: 86): also activating the receptor, although with a lower potency
inactive up to concentration (OR8K3; wild-type OR8K3): > 316 µM

SEQ ID NO: 86: optimized C-terminal sequence fused after TM7 of the OR of the assay (RNKEVKDALKRLLKRKCC; source 1..18: note = C-terminal domain sequence)
% of the activation by the optimized sequence RNKEVKDALKRLLKRKCC (OR2T4; 4 μM 2-methyl-3-tetrahydrofuranethiol): 100%
% of the activation by the optimized sequence RNKEVKDALKRLLKRKCC (OR2T4; 8 μM 2-methyl-3-tetrahydrofuranethiol): 100%
% of the activation by the optimized sequence RNKEVKDALKRLLKRKCC (OR2T4; 10 μM Cyclopentanethiol, 30 μM copper): 100%
% of the activation by the optimized sequence RNKEVKDALKRLLKRKCC (OR2T4; 31 μM Cyclopentanethiol, 30 μM copper): 100%
fold-induction of luciferase (OR5A2; muscone 0.01 μM): 1.07
fold-induction of luciferase (OR5A2; muscone 0.03 μM): 1.48
fold-induction of luciferase (OR5A2; muscone 0.10 μM): 3.57
fold-induction of luciferase (OR5A2; muscone 0.32 μM): 10.02
fold-induction of luciferase (OR5A2; muscone 1.00 μM): 21.98
fold-induction of luciferase (OR5A2; muscone 3.16 μM): 31.84
fold-induction of luciferase (OR5A2; muscone 10.00 μM): 33.98
% of the activation by the optimized sequence RNKEVKDALKRLLKRKCC (OR5B12; 31 μM Hedione HC): 100%
% of the activation by the optimized sequence RNKEVKDALKRLLKRKCC (OR5B12; 62.5 μM Hedione HC): 100%
fold induction of luciferase by 4-ethyloctanoic acid (OR52A5; 1 µM): 2.21
fold induction of luciferase by 4-ethyloctanoic acid (OR52A5; 10 µM): 3.53
fold induction of luciferase by 4-ethyloctanoic acid (OR52A5; 31 µM): 7.64
luciferase induction (OR7C1; 1 μM of Ambermax): around 10 fold
% of the activation by the optimized sequence RNKEVKDALKRLLKRKCC (OR7C1; OR7C1 variant, 1 μM Ambermax): 100%
EC2 (concentration for 2-fold luciferase induction) (OR7D4): 0.007 µM
EC2 Fold-improvement vs. wild-type (OR7D4): 249.44

SEQ ID NO: 156 (RNKEVKDALKRLLKRKCCRRR; source 1..21: note = C-terminal domain sequence)
% of the activation by the optimized sequence RNKEVKDALKRLLKRKCC (OR5B12; 31 μM Hedione HC): 250.7%
% of the activation by the optimized sequence RNKEVKDALKRLLKRKCC (OR5B12; 62.5 μM Hedione HC): 233.4%
fold induction of luciferase by 4-ethyloctanoic acid (OR52A5; 1 µM): 9.39
fold induction of luciferase by 4-ethyloctanoic acid (OR52A5; 10 µM): 14.90
fold induction of luciferase by 4-ethyloctanoic acid (OR52A5; 31 µM): 22.00

SEQ ID NO: 740 (RNKQIRDALKRLLKRKCC; source 1..18: note = C-terminal domain sequence)
fold induction of luciferase by 4-ethyloctanoic acid (OR52A5; 1 µM): 10.09
fold induction of luciferase by 4-ethyloctanoic acid (OR52A5; 10 µM): 12.30
fold induction of luciferase by 4-ethyloctanoic acid (OR52A5; 31 µM): 19.31
